In patent US20230241258A1 (Bristol-Myers Squibb, published 2023):
Each block holds one binder with its values, some of them ahead of it.

Columns and labels:
[1] = target: T1, human PD-L1 (human, UniProt Q9NZQ7 19-290); test: radioligand cell binding on ice for 1 hour, gamma counter
T1 construct: whole, on cells; PD-L1-negative HT-29 cells served as the negative comparison; also called hPD-L1; B7-H1
Method: After the incubation period, cell samples were centrifuged at 200×g and the supernatant was discarded. Cell pellets were resuspended in 1 mL PBS+0.5% BSA and the wash procedure repeated for a total of 3 washes. Following the final wash, cells were again centrifuged at 200×g and the supernatant was discarded. The radioactivity of the remaining cell pellets was then measured by gamma counter.

[2] = target: T1, human PD-L1; test: cell-based or functional assay
[3] = target: T1, human PD-L1; test: competition autoradiography on frozen tissue sections; unlabeled A02 at 0.025, 0.25, 2.5 and 25 nM displaces 0.25 nM 18F-DBCO-A02 radioligand

- fold cell associated radioactivity, PD-L1-positive L2987 cells over PD-L1-negative HT-29 cells [1]: 44.6 fold
B1: [^18F]-E01-4PEG-DBCO-FPPEGA (designed binder)
chain: GVSDVPRDLEVVAATPTSLLISWRAQLSPSFYYRITYGETGGNSPVQEFTVPNDVMTATISGLKPGVDYTITVYAVTTHGVYFYSPISINYRTPC
modifications: C-terminal cysteine thiol linked to Maleimide-PEG4-DBCO, which is clicked to [^18F]-FPPEGA (^18F prosthetic group)
notes: also called ^18F-radiolabeled E01-4PEG-DBCO; ^18F-E01 adnectin radiotracer

- maximum radiotracer uptake ratio, hPD-L1(+) L2987 vs. hPD-L1(-) HT-29 xenografts [2]: 3.53 ratio
- radiotracer uptake in PD-L1(+) L2987 xenografts relative to PD-L1(-) HT-29 xenografts, PET in mice, co-injected with 3 mg/kg unlabeled A02 Adnectin [2]: 1.04 fold
- radiotracer uptake in PD-L1(+) L2987 xenografts relative to PD-L1(-) HT-29 xenografts, PET in mice, final 10 minutes of the time-activity curve [2]: 3.05 fold
B2: [^18F]-radiolabeled-A02-PEG-DBCO-FPPEGA (designed binder)
chain: EVVAATPTSLLISWSYDGPIDRYYRITYGETGGNSPVQEFTVPPDQKTATISGLKPGVDYTITVYAVRLEEAHYNREFPISINYRTPC
modifications: C-terminal cysteine linked to Maleimide-PEG4-DBCO and clicked to [^18F]-FPPEGA (produced as described in Example 9)

- binding result [3]: binds
B3: A02 Adnectin, cold (unlabeled) (designed binder)
chain: B2 chain
notes: also called unlabeled anti-PD-L1 A02 adnectin
